Experimental data from PMC9352680, “A comprehensive thermodynamic model for RNA binding by the Saccharomyces cerevisiae Pumilio protein PUF4”.
Positions count from the first letter of the chain named. In names and notes the source's numbering stands.

T1: PUF4 RNA-binding domain (Saccharomyces cerevisiae, UniProt P25339 537-888)
T1 sequence: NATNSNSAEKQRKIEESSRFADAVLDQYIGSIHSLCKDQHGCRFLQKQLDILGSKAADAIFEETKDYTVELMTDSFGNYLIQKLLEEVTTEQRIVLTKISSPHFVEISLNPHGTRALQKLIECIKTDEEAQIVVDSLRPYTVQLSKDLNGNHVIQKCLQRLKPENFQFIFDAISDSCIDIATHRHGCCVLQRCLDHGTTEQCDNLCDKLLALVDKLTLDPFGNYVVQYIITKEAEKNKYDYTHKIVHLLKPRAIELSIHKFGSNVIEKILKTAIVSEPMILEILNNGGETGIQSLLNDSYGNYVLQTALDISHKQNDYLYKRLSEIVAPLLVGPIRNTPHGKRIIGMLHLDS

B1: Ib_S2_P3E.1_K3.1_C3.1_H3.1_A3.1_[A6T]_F3.1_[A8C]_T3.1 (ssRNA)
RNA: UUUGAUUAAUAUGAUAUCGUUCUUUCUUGUAUUUCUUCUUUCUCGAUAUCAUAUUAAUCUUU
B2: Ib_S2_P3E.1_K3.1_C3.1_H3.1_A3.1_[A6T]_F3.1_[A8T]_T3.1 (ssRNA)
RNA: B1 RNA with C35U
B3: Ic_S2_P3E.1_K3.1_C3.1_H3.1_A3.1_[A6C]_F3.1_[A8T]_T3.1 (ssRNA)
RNA: B1 RNA with U33C, C35U
B4: Ib_S2_P3E.1_K3.1_C3.1_H3.1_[T1G]_[G2C]_A3.1_F3.1_T3.1 (ssRNA)
RNA: B1 RNA with U28G, G29C, U33A, C35A
B5: Ib_S2_P3E.1_K3.1_C3.1_H3.1_A3.1_[A6G]_F3.1_[A8T]_T3.1 (ssRNA)
RNA: B1 RNA with U33G, C35U
B6: Ia_S2_P3E.1_K3.1_C3.1_H3.1_[A4C]_A3.1_F3.1_T3.1 (ssRNA)
RNA: B1 RNA with A31C, U33A, C35A
B7: Ie_S2_P4E.1_K4.1_C4.1_H4.1_A4.1_F4.1_[+8C]_T4.1 (ssRNA)
RNA: UUUGAUUAAUAUGAUAUCGUUCUUUCUUGUAUAUUCAUUCUUUCUCGAUAUCAUAUUAAUCUUU
B8: Ie_S2_P4E.1_K4.1_C4.1_H4.1_A4.1_[+5CC]_F4.1_T4.1 (ssRNA)
RNA: UUUGAUUAAUAUGAUAUCGUUCUUUCUUGUAUCCAUUAUUCUUUCUCGAUAUCAUAUUAAUCUUU
B9: Ie_S2_P4E.1_K4.1_C4.1_H4.1_A4.1_F4.1_[+8CT]_T4.1 (ssRNA)
RNA: B8 RNA with C33A, C34U, A35U, U36C
B10: Ie_S2_P4E.1_K4.1_C4.1_H4.1_A4.1_[+7CC]_F4.1_T4.1 (ssRNA)
RNA: B8 RNA with C33A, C34U, A35C, U36C
B11: Ie_S2_P4E.1_K4.1_C4.1_H4.1_A4.1_[+6TC]_F4.1_T4.1 (ssRNA)
RNA: B8 RNA with C33A, C34U, A35C
B12: Ie_S2_P4E.1_K4.1_C4.1_H4.1_A4.1_F4.1_[+8TC]_T4.1 (ssRNA)
RNA: B8 RNA with C33A, C34U, A35U, U37C
B13: Ie_S2_P5E.1_K5.1_C5.1_H5.1_A5.1_[+6C]_F5.1_T5.1 (ssRNA)
RNA: B8 RNA with C33U
B14: Ie_S2_P4E.1_K4.1_C4.1_H4.1_A4.1_[+7TT]_F4.1_T4.1 (ssRNA)
RNA: B8 RNA with C33A, C34U, A35U
B15: Ie_S2_P4E.1_K4.1_C4.1_H4.1_A4.1_F4.1_[+8CC]_T4.1 (ssRNA)
RNA: B8 RNA with C33A, C34U, A35U, U36C, U37C
B16: Ie_S2_P4E.1_K4.1_C4.1_H4.1_A4.1_[+6CT]_F4.1_T4.1 (ssRNA)
RNA: B8 RNA with C33A, A35U
B17: Ie_S2_P4E.1_K4.1_C4.1_H4.1_[+4TTCCT]_A4.1_F4.1_T4.1 (ssRNA)
RNA: UUUGAUUAAUAUGAUAUCGUUCUUUCUUGUAUUCCUUAUUAUUCUUUCUCGAUAUCAUAUUAAUCUUU
B18: Ie_S2_P4E.1_K4.1_C4.1_H4.1_A4.1_[+5TCTCT]_F4.1_T4.1 (ssRNA)
RNA: B17 RNA with C35U, U36C
B19: Ie_S2_P4E.1_K4.1_C4.1_H4.1_A4.1_F4.1_[+8TCTCT]_T4.1 (ssRNA)
RNA: B17 RNA with U33A, C34U, C35U, U37C, A38U, U39C
B20: Ie_S2_P4E.1_K4.1_C4.1_H4.1_A4.1_[+6CCCTT]_F4.1_T4.1 (ssRNA)
RNA: B17 RNA with U33A, U36C, A38U
B21: Ie_S2_P5E.1_K5.1_C5.1_H5.1_A5.1_[+5CCTC]_F5.1_T5.1 (ssRNA)
RNA: B17 RNA with U33C, C35U, U36C
B22: Ie_S2_P4E.1_K4.1_C4.1_H4.1_A4.1_[+7CTCTC]_F4.1_T4.1 (ssRNA)
RNA: B17 RNA with U33A, C34U, U37C, A38U, U39C
B23: Ie_S2_P5E.1_K5.1_C5.1_H5.1_A5.1_[+5TTCC]_F5.1_T5.1 (ssRNA)
RNA: B17 RNA with C34U, U36C
B24: Ie_S2_P4E.1_K4.1_C4.1_H4.1_A4.1_F4.1_[+8CCTCT]_T4.1 (ssRNA)
RNA: B17 RNA with U33A, C34U, C35U, U36C, U37C, A38U, U39C
B25: Ie_S2_P5E.1_K5.1_C5.1_H5.1_A5.1_[+5CCCT]_F5.1_T5.1 (ssRNA)
RNA: B17 RNA with U33C
B26: Ie_S2_P4E.1_K4.1_C4.1_H4.1_A4.1_F4.1_[+8TTCCT]_T4.1 (ssRNA)
RNA: B17 RNA with U33A, C34U, C35U, A38C, U39C
B27: Ie_S2_P4E.1_K4.1_C4.1_H4.1_A4.1_[+6CTCTC]_F4.1_T4.1 (ssRNA)
RNA: B17 RNA with U33A, C35U, U36C, A38C
B28: Ie_S2_P4E.1_K4.1_C4.1_H4.1_[+4CCCTT]_A4.1_F4.1_T4.1 (ssRNA)
RNA: B17 RNA with U32C, U33C, C35U
B29: Ie_S2_P5E.1_K5.1_C5.1_H5.1_A5.1_[+6CTC]_F5.1_T5.1 (ssRNA)
RNA: UUUGAUUAAUAUGAUAUCGUUCUUUCUUGUAUUCUCAUUAUUCUUUCUCGAUAUCAUAUUAAUCUUU
B30: Ie_S2_P4E.1_K4.1_C4.1_H4.1_A4.1_[+7CCTC]_F4.1_T4.1 (ssRNA)
RNA: B29 RNA with U33A, C34U, U35C, A37U, U38C
B31: Ie_S2_P4E.1_K4.1_C4.1_H4.1_A4.1_[+7CTCT]_F4.1_T4.1 (ssRNA)
RNA: B29 RNA with U33A, C34U, U35C, C36U, A37C
B32: Ie_S2_P4E.1_K4.1_C4.1_H4.1_A4.1_[+6CCCT]_F4.1_T4.1 (ssRNA)
RNA: B29 RNA with U33A, U35C, A37U
B33: Ie_S2_P4E.1_K4.1_C4.1_H4.1_A4.1_F4.1_[+8CCCT]_T4.1 (ssRNA)
RNA: B29 RNA with U33A, C34U, A37C, U38C
B34: Ie_S2_P4E.1_K4.1_C4.1_H4.1_A4.1_F4.1_[+8CTCT]_T4.1 (ssRNA)
RNA: B29 RNA with U33A, C34U, A37U, U38C
B35: Ie_S2_P4E.1_K4.1_C4.1_H4.1_A4.1_F4.1_[+8CCTC]_T4.1 (ssRNA)
RNA: B29 RNA with U33A, C34U, A37C, U39C
B36: Ie_S2_P4E.1_K4.1_C4.1_H4.1_A4.1_[+7CCCT]_F4.1_T4.1 (ssRNA)
RNA: B29 RNA with U33A, C34U, U35C, A37C
B37: Ie_S2_P4E.1_K4.1_C4.1_H4.1_A4.1_[+5TTCC]_F4.1_T4.1 (ssRNA)
RNA: B29 RNA with C34U, U35C
B38: Ie_S2_P4E.1_K4.1_C4.1_H4.1_A4.1_[+6CCTC]_F4.1_T4.1 (ssRNA)
RNA: B29 RNA with U33A, U35C, C36U, A37C
B39: Ie_S2_P4E.1_K4.1_C4.1_H4.1_A4.1_[+6CTCT]_F4.1_T4.1 (ssRNA)
RNA: B29 RNA with U33A, A37U
B40: Ie_S2_P4E.1_K4.1_C4.1_H4.1_A4.1_[+5CTC]_F4.1_T4.1 (ssRNA)
RNA: UUUGAUUAAUAUGAUAUCGUUCUUUCUUGUAUCUCAUUAUUCUUUCUCGAUAUCAUAUUAAUCUUU
B41: Ie_S2_P4E.1_K4.1_C4.1_H4.1_A4.1_F4.1_[+8TCC]_T4.1 (ssRNA)
RNA: B40 RNA with C33A, C35U, A36U, U37C, U38C
B42: Ie_S2_P4E.1_K4.1_C4.1_H4.1_A4.1_[+5TTC]_F4.1_T4.1 (ssRNA)
RNA: B40 RNA with C33U
B43: Ie_S2_P4E.1_K4.1_C4.1_H4.1_A4.1_[+6CCT]_F4.1_T4.1 (ssRNA)
RNA: B40 RNA with C33A, U34C, A36U
B44: Ie_S2_P4E.1_K4.1_C4.1_H4.1_A4.1_F4.1_[+8CCT]_T4.1 (ssRNA)
RNA: B40 RNA with C33A, C35U, A36C, U37C
B45: Ie_S2_P4E.1_K4.1_C4.1_H4.1_A4.1_[+5TCC]_F4.1_T4.1 (ssRNA)
RNA: B40 RNA with C33U, U34C
B46: Ie_S2_P4E.1_K4.1_C4.1_H4.1_A4.1_[+7CCC]_F4.1_T4.1 (ssRNA)
RNA: B40 RNA with C33A, A36C, U37C
B47: Ie_S2_P4E.1_K4.1_C4.1_H4.1_A4.1_F4.1_[+8CTT]_T4.1 (ssRNA)
RNA: B40 RNA with C33A, C35U, A36C
B48: Ie_S2_P4E.1_K4.1_C4.1_H4.1_A4.1_[+7CCT]_F4.1_T4.1 (ssRNA)
RNA: B40 RNA with C33A, A36C
B49: Ie_S2_P4E.1_K4.1_C4.1_H4.1_A4.1_[+7CTC]_F4.1_T4.1 (ssRNA)
RNA: B40 RNA with C33A, A36U, U37C
B50: Ie_S2_P4E.1_K4.1_C4.1_H4.1_A4.1_[+6TTT]_F4.1_T4.1 (ssRNA)
RNA: B40 RNA with C33A, C35U, A36U
B51: Ie_S2_P4E.1_K4.1_C4.1_H4.1_A4.1_F4.1_[+8CTC]_T4.1 (ssRNA)
RNA: B40 RNA with C33A, C35U, A36C, U38C

Molecular target: T1, PUF4 RNA-binding domain
Assay: Mg; RNA-MaP; 20 mM Na-HEPES pH 7.4, 30 mM KOAc, 0.75 mM MgCl2, 0.1% Tween-20, 5% glycerol, 0.1 mg/mL BSA, 2 mM DTT; 25 C; 0.0125-409.6 nM protein
Conditions: tags: N-His6-TEV cleaved; C-SNAP kept, Cy3B-labelled; label: tethered on chip by stalled RNA polymerase

Row | Binder | Kd [nM]
1 | B1 | 29.3
2 | B2 | 10.5
3 | B3 | 9.3
4 | B4 | 798
5 | B5 | 22.5
6 | B6 | 184
7 | B7 | 6.81
8 | B8 | 20.2
9 | B9 | 3.57
10 | B10 | 11.7
11 | B11 | 4.55
12 | B12 | 6.93
13 | B13 | 25.6
14 | B14 | 2.3
15 | B15 | 5.04
16 | B16 | 3.75
17 | B17 | 8
18 | B18 | 7.74
19 | B19 | 3.78
20 | B20 | 20.8
21 | B21 | 10.2
22 | B22 | 9
23 | B23 | 7.16
24 | B24 | 4.43
25 | B25 | 11.9
26 | B26 | 3.81

Row | Binder | Kd [nM]
27 | B27 | 6.56
28 | B28 | 5.28
29 | B29 | 18.7
30 | B30 | 12.2
31 | B31 | 12.8
32 | B32 | 26.5
33 | B33 | 3.71
34 | B34 | 4.74
35 | B35 | 4.56
36 | B36 | 10.1
37 | B37 | 47.7
38 | B38 | 14.8
39 | B39 | 6.3
40 | B40 | 26.1
41 | B41 | 3.54
42 | B42 | 29.9
43 | B43 | 12.7
44 | B44 | 3.9
45 | B45 | 46.4
46 | B46 | 13.5
47 | B47 | 4.6
48 | B48 | 10.6
49 | B49 | 8.21
50 | B50 | 3.88
51 | B51 | 5.23
